Source: patent publication US20130108636A1

Assays:
[1] = target: gp140Con-s; test: SPR; target not given, taken from Example 5
[2] = target: gp140Con-s; test: SPR (Biacore X100), gp140 amine-coupled on a CM5 chip, single-cycle, monovalent model

## mD1-CH2 (from UniProt P01730 26-124)
[1]
  fold decrease of association rate constant compared to mD1: 80 fold
  koff: 0.0009 s⁻¹
  kon: 61000 M⁻¹ s⁻¹

## D1D2 (from UniProt P01730 26-203) (receptor)
[2]
  Kd: 7.8 nM
[1]
  koff: 0.0013 s⁻¹
